These results are taken from patent US12649776B2, “Scaffold proteins and therapeutic nanoconjugates based on nidogen” (UNIVERSITAT AUTÒNOMA DE BARCELONA, priority 2019, dated 2026).

The conditions of series [1]: literature value; cited from earlier work.
Series [2] can be described thus: Volume size distribution of protein nanoparticles and nanoconjugates by Dynamic Light Scattering (DLS). The format is physicochemical. The conditions noted are these: self-assembled material in storage (carbonate) buffer. As for the experimental part: Volume size distribution of all protein nanoparticles and nanoconjugates were determined by Dynamic Light Scattering (DLS) at 633 nm in a Zetasizer Nano ZS (Malvern Instruments) in triplicate.
Volume size distribution of protein nanoparticles was determined in a Zetasizer Nano ZS (Malvern Instruments) by Dynamic Light Scattering (DLS) at 633 nm in triplicates.
The integrity of the recombinant proteins was checked by mass spectrometry (MALDI-TOF), TGX (Tris-Glycine eXtended) Stain-Free acrylamide gels electrophoresis (BioRad) and Western Blot analysis using anti-His monoclonal antibody (1:1000; Santa Cruz, ref. 57598). Protein concentration was determined by Bradford (Biorad) assay with an Albumin (Roche) standard curve. GFP fluorescence emission (510 nm) was determined on purified proteins with a Cary Eclipse fluorescence spectrophotometer (Agilent Technologies) using an excitation wavelength of 450 nm. The volume and size distribution of nanoparticles were measured by dynamic light scattering (DLS) at 633 nm through a Zetasizer Nano ZS (Malvern Instruments) using quartz cuvettes.

Another series has as its system CXCR4+ HeLa cells. The series can be described thus: Protein internalization of EPIX4 / T22 / biparatopic nanoparticles (flow cytometry, AMD3100 competition, confocal). The series is classed as cell-based, human. The conditions noted are these: 1 μM. As for the experimental part: (§1) Experiments were performed in CXCR4+ cervical and colorectal cell lines (HeLa and SW1417, respectively). HeLa cells were cultured in Eagle's Minimum Essential Medium (Gibco) and SW1417 in Dulbecco's Modified Eagle's Medium (Gibco). Both cell lines were supplemented with 10% fetal bovine serum (Gibco) and incubated in a humidified atmosphere at 37° C. and 5% (HeLa) or 10% (SW1417) of CO2.
(§2) For testing protein internalization, cells were seeded in 24-well plates (Nunc) (30000 cells wells^−1) for 24 h. Briefly, the medium was removed, and cells were washed with PBS. Then protein was incubated at 1 and 2 μM, diluted in OptiPro medium supplemented with L-Glutamine and incubated at different times, at suitable cell line conditions. Then, harsh trypsin digestion (1 mg ml^−1 for 15 min) (Gibco) was carried out to remove protein particles bound to the outer size of the cell membranes. Intracellular green fluorescence was analyzed by flow cytometry on an FACS-Calibur system (Becton Dickinson) using a 15 mW air-cooled argon ion laser at 488 nm excitation. Fluorescence emission was measured with a D detector (530/30 nm band pass filter), and manually corrected by the specific fluorescence of purified protein, to get data representative of the amount of internalized protein for comparative purposes. […]
Background: Flow cytometry measures light scatter and fluorescence of single cells or particles in a stream.

For another series, the system named is CXCR4+ SW1417 cells. The series can be described thus: Protein internalization of EPIX4 / T22 / biparatopic nanoparticles (flow cytometry). The format is cell-based, human. The conditions noted are these: 1 μM. As for the experimental part: as §1, §2

Regarding “Human Collagen Type I: human collagen type I, literature comparator (Leikina et al)”, in series [1], the Tm is reported as 40.3° C.^ and the “Tonset, 1” value was 38.2 °C.

Turning to “T22-GFP-H6: Modular protein: T22 ligand, Green Fluorescent Protein scaffold, C-terminal poly-histidine [reference compound]”, the “Nanoparticle size (volume size distribution, DLS)” value in series [2] is reported as around 11 nm. For the same substance, the “Time course of cell uptake” value in the series on CXCR4+ HeLa cells and in the series with CXCR4+ SW1417 cells was “high uptake at short times” throughout. In addition, in series [1], the “Tonset, 1” value was 75 °C.
